Ends that are not written are not given here.
Columns and labels:
[1] = biological target: T1, non-sense peptide PGGVPGGVFY; experiment: Competitive ELISA on coated Biotin-…
T1 construct: Control peptide in the specificity test
T1 peptide: PGGVPGGVFY
Method: (§1) Based on the collected antibodies the ELP-3 assay was developed as competitive ELISA assay. A 96-well streptavidin-coated microtiter plate (Roche, Basel, Switzerland) was coated with 100 ul biotinylated screening peptide (Biotin-[…] (SEQ ID NO: 5)) dissolved in assay buffer for 30 min at 20° C. with shaking. Plates were washed five times in washing buffer (20 mM TRIS, 50 mM NaCl, pH 7). Sample/standard/control (20 ul) was added and followed by addition of (100 ul) monoclonal antibody and incubated for 3 h at 4° C. with shaking. After incubation, plates were washed five times in washing buffer. A volume of 100 ul of secondary HRP labeled goat anti-mouse antibody was added followed by 1 h incubation at 20° C. with shaking. Plates were then washed and TMB was added and the plate was analyzed by a SpectraMax M reader (Molecular Devices, Ca, USA) at 450 nm with 650 nm as the reference. A standard curve was plotted using a 4-parametric mathematical fit model. Each ELISA plate included kit controls to monitor inter-assay variation. All samples were measured within the range of the assay. All samples below the level of lower limit of quantification (LLOQ) were assigned the value of LLOQ.
(§2) Supernatants from antibody producing hybridomas were screened for reactivity against standard peptide, elongated peptide, and truncated peptide in an indirect ELISA. The peptide Biotin-[…] […]

[2] = biological target: T2, Elongated peptide LPGGYGLPYTT (human); experiment: Competitive ELISA on coated Biotin-LPGGYGLPYT
T2 construct: Standard peptide extended by one threonine at the C-terminus; also called C-extended elongated version
T2 peptide: LPGGYGLPYTT
Method: as §1, §2

[3] = biological target: T3, intact elastin (Sigma, E7152) (human, UniProt P15502 27-786, limits assumed); experiment: ELP-3 competitive ELISA on in vitro cleavage samples
T3 construct: Uncleaved elastin control of the in vitro cleavage experiment
T3 sequence (looked up): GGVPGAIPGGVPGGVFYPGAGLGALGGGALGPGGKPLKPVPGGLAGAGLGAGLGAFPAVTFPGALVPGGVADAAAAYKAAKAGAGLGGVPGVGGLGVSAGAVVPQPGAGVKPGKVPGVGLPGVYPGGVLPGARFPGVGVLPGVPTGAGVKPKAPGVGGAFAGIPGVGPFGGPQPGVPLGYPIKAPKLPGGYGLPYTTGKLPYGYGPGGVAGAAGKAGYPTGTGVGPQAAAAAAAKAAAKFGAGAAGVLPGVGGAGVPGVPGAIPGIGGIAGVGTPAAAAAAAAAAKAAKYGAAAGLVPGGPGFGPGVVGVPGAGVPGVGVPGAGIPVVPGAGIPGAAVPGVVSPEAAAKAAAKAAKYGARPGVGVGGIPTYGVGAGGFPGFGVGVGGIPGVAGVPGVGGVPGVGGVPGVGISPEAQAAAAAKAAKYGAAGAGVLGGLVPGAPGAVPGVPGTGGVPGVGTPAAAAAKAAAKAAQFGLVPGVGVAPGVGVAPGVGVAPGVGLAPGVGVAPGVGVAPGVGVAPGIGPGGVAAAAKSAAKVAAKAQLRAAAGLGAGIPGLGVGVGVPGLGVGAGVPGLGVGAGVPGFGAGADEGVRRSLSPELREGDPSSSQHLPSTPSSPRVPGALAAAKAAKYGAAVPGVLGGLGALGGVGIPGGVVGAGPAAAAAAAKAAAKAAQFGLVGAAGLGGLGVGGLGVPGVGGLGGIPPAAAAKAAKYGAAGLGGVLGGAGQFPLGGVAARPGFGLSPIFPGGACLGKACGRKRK

[4] = biological target: T4, Proteinase 3 (PR3; EPC ML734) (UniProt P24158 28-248); experiment: as above
T4 construct: also called protease control
T4 sequence (looked up): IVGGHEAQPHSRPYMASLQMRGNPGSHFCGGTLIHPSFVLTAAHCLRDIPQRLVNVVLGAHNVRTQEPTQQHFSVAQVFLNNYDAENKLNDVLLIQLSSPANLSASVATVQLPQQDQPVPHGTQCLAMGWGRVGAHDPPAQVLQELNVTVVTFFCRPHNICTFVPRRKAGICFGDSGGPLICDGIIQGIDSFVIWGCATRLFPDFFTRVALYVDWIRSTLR

[5] = biological target: T5, Human neutrophil elastase (HNE) protein (Abcam, ab91099) (human, UniProt P08246 30-247, limits assumed); experiment: as above
T5 construct: also called protease control
T5 sequence (looked up): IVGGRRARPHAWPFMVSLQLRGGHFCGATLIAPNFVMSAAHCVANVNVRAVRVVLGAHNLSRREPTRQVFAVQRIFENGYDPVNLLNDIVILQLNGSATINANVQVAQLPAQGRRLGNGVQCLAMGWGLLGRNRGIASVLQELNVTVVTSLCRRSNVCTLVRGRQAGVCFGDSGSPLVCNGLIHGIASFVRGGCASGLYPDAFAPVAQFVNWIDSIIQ

[6] = biological target: T6, Standard peptide LPGGYGLPYT (human); experiment: Indirect or competitive ELISA with the standard peptide as calibrator
T6 construct: Synthetic decapeptide with a free C-terminus; also called calibrator peptide; selection peptide
T6 peptide: LPGGYGLPYT-OH

binding result [1]: no binding | binding result [2]: no binding | binding result [3]: no binding | binding result [4]: no binding | binding result [5]: no binding | binding result [6]: binds
B1: monoclonal antibody clone NBH116/6A10-E7-D12 (antibody, mouse IgG1, kappa, V domains shown)
VH: EVKLVESGGGLVQPGDSLRLSCATSGFTFTDYYMSWVRQPPGKALEWLGFIRNKANGYTTEYSASVKGRFTISRDNSQSILYLQMNTLRAEDSATYYCARDIITTPSWFGYWGQGTLVTVSA
VL: DIQMNQSPSSLSASLGDTITITCHASQNINVWLSWYQQKPGNIPKLLIYKASNLHTGVPSRFSGSGSGTGFTLTISSLQPEDIATYYCQQGQSYPLTFGAGTKLELKR
notes: also called ELP-3 antibody; the selected antibody
